{"source": "patent US20030091990A1", "about": "“Methods and compositions involving thymidine phosphorylase as a marker for HIV infection, aids progression, and drug resistance” (priority 2001, published 2003)", "tested_on": "resting CD4+ T lymphocytes", "test": "Affymetrix GeneChip Expression Analysis of resting CD4+ T lymphocytes", "assay_type": "cell-based", "conditions": "incubated 3 hrs at 37° C.; Human Genome U95A chips; fold changes from +2.0 to -2.0 removed; comparison with Mock control", "description": "To investigate the changes in RNA expression of resting CD4+ T lymphocytes by HIV-1, Affymetrix GeneChip® Expression Analysis was done. Purified resting CD4+ T lymphocytes (purity of >98%) prepared from a healthy donor by StemCell™ magnetic column technique were incubated with HIV-1213 ((M.O.I. 0.5-1), IL-16 (10 ng/ml), or MHC II peptide (50 μM, RK1) in a 37° C. humidified 5% CO2 incubator for 3 hrs). Then, total cytoplasmic RNA was extracted by using RNA isolation kit (Qiagen) according to the manufacturer's instructions. Isolated RNA was applied on the Human Genome U95A chips, containing 12,626 full-length genes (Affymetrix, Santa Clara, Calif.). Data were generated from hybridization intensities measured on GeneChip expression probe arrays and analyzed by GeneChip software provided by Affymetrix. In order to compare gene expression levels between two samples (Mock, HIV213, IL-16 and MHC II peptide), Comparison Analysis was performed on data from two separate probe array experiments by determining the relative changes in abundance for each transcript. All moderate increase, moderate decrease and no change were removed. All fold changes from +2.0 to −2.0 were also removed. […] TP (PDECGF) was one of the molecules that have shown great change in its mRNA level when CD4 T cells were signalled with HIV (48 fold change). […]"}
{"molecule": "IL-16: IL-16 (10 ng/ml) incubated with resting CD4+ T lymphocytes (protein, UniProt Q14005 1212-1332, looked up) Interleukin-16: SAASASAASDVSVESTAEATVCTVTLEKMSAGLGFSLEGGKGSLHGDKPLTINRIFKGAASEQSETVQPGDEILQLGGTAMQGLTRFEAWNIIKALPDGPVTIVIRRKSLQSKETTAAGDS", "values": [{"measurement": "genes changed vs. Mock", "result": 84, "unit": "genes"}]}
